Test results: patent US20200317817A1 (XOMA US, published 2020)

T1: recombinant N-terminal extracellular domain of the human PTH1R receptor (human, UniProt Q03431 27-188, limits assumed)
T1 construct: domain: N-terminal extracellular domain; Bought reagent; also called N-ECD PTH1R; PTH1R N-terminal ECD
T1 sequence (looked up): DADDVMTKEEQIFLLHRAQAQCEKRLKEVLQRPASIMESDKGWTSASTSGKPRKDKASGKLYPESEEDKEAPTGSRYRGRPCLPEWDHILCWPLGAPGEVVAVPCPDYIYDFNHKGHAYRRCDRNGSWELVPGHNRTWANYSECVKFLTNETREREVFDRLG

T2: human PTH1R overexpressed on Saos-2 cells (human, UniProt Q03431 27-593)
T2 construct: whole, on cells; also called Saos-2 human PTH1R cells
T2 sequence (looked up): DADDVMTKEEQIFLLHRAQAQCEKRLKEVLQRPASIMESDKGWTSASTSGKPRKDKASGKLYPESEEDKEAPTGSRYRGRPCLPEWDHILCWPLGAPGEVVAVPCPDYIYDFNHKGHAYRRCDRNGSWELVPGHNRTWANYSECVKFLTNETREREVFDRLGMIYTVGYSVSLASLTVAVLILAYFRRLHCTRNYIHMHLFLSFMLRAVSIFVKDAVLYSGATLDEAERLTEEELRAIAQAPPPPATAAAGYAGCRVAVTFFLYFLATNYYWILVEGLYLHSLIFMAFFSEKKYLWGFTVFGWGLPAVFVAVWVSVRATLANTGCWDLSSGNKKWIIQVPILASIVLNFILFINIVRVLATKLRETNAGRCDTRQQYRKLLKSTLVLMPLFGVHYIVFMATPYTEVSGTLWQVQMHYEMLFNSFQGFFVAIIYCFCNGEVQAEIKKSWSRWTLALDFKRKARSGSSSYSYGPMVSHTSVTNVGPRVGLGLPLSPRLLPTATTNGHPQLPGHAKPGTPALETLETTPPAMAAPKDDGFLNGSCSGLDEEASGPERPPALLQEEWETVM

T3: human PTH1R on Saos-2 cells (endogenous) (human, UniProt Q03431 27-593)
T3 sequence (looked up): T2 sequence (looked up)

T4: mouse PTH1R overexpressed on CHO cells (mouse, UniProt P41593 27-591)
T4 construct: whole, on cells; also called CHO mouse PTH1R; CHO Mouse PTHR
T4 sequence (looked up): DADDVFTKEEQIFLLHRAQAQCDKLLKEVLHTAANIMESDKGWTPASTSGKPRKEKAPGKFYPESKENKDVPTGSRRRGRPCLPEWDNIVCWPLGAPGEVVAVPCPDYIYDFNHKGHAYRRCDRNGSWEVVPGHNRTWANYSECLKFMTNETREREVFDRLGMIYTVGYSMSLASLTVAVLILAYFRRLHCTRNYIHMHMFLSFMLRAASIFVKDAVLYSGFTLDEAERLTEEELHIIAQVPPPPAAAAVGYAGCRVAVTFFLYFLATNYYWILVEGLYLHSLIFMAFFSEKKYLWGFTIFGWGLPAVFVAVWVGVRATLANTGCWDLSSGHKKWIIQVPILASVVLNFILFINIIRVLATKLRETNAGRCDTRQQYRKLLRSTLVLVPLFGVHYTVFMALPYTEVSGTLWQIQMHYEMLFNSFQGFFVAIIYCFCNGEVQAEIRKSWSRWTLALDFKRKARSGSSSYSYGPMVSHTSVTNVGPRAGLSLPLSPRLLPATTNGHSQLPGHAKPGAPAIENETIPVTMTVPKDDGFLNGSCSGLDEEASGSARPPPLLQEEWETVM

T5: human PTH1R overexpressed on CHO cells (human, UniProt Q03431 27-593)
T5 construct: whole, on cells; also called CHO human PTH1R; CHO Human PTHR
T5 sequence (looked up): T2 sequence (looked up)

B1: XPA.85.329 (antibody, V domains shown)
VH: QMQLVQSGAEVKKPGSSVKVSCKASGGTFSSYAISWVRQAPGQGLEWMGGIIPIFGTANYAQKFQGRVTITADESTSTAYMELSSLRSEDTAVYYCARGYVVARLWGQGTLVTVSS
VL: DIVMTQTPLSLSVTPGQPASISCKSSQSLLHIDGLTYLYWYLQKPGQPPQLLIYEVSHRFSGVSDKFSGSGSGTDFTLTISRVEAEDVGVYYCMQSLHLPITFGQGTRLEIK
notes: IgG; also called Ab329; XPA.329
B2: XPA.85.341 (antibody, V domains shown)
VH: EVQLVETGGGVVRPGGSLRLSCAASGFTFSSSAMSWVRQTPGKELQWVSAITPGGEGTYYADVVKGRFTISRDNSKDTLYLQMDSLRAEDTAVYYCARDLYGSYGDAFDIWGQGTLVTVSS
VL: SYELTQPSSVSVSPGQTASITCSGDKLGEKYASWYQQKPGQSPVLVMFEDTKRPSGIPERFSGSNSGNTATLTISGTQAEDEADYYCQAWDSSWVFGGGTQLTVL
notes: Light-chain-shuffled variant of XPA.85.017
B3: XPA.85.339 (antibody, V domains shown)
VH: B2 VH
VL: SYELTQPPSVSVAPGQTATITCSGDRLGDKFISWYQQKPGQSPLLVIFEDNERPSRIPERFSGSNSGNSATLTISGTQAVDEADYYCQAWDSSWVFGGGTQLTVL
notes: as for B2
B4: XPA.85.287 (antibody, V domains shown)
VH: B2 VH
VL: SYVLTQPPSVSVAPGQTARITCSGDKLGDRYVSWYQQKPGQSPVLVMFEDTGRPAGIPERFSGSNSGNTATLTISGTQAEDEADYYCQAWGTSWVFGGGTQLTVL
notes: also called Ab287

Experiments:
[1] = target: T1, recombinant N-terminal extracellular …; experiment: SPR, IgG captured, ECD injected
Procedure, shortened: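 Antibodies (0.5 μg/mL) captured on anti-human IgG-Fc chip to 100–200 RU in HBS-EP+ with 2.5 mg/mL BSA; receptor ECD injected at 30 μL/minute for 240 s, 360 s dissociation, 3M MgCl regeneration. Double-referenced data fit globally for ka and kd; KD=kd/kₐ.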

[2] = target: T2, human PTH1R overexpressed on Saos-2 …; experiment: flow cytometry on Saos-2 cells overexpressing human PTH1R, in the presence of 1 uM PTH, PE anti-human IgG
[3] = target: T3, human PTH1R on Saos-2 cells (endogenous); experiment: cell-based or functional assay
[4] = target: T4, mouse PTH1R overexpressed on CHO cells; experiment: flow cytometry on CHO cells, with 3 uM PTHrP as competitor
Procedure: (§1) To characterize antibody binding to PTH1R, cells were labeled with either CellTrace™ CFSE or CellTrace™ Violet. Unlabeled CHOK1 parent, CHO human PTH1R labeled with CellTrace™CFSE, and CHO mouse PTH1R labeled with CellTrace™Violet were pooled together and stained with increasing concentrations of antibody. Antibodies were incubated for 24 hr at 4° C. followed by two washes with FACS Buffer (0.5% BSA, 0.1% NaN3 in DPBS). Cells were then incubated with Allophycocyanin (APC) AffiniPure F(ab′)₂ Fragment Goat Anti-Human IgG (H+L) (Jackson ImmunoResearch, West Grove, Pa.) for 20 minutes at 4° C. Followed by two washes, cells were resuspended in FACS Buffer. Samples were acquired using BD Cytometer (BD Biosciences, San Jose, Calif.) and data were analyzed using FlowJo (FlowJo, LLC, Ashland, Oreg.) and Prism (GraphPad Software, La Jolla, Calif.).

[5] = target: T5, human PTH1R overexpressed on CHO cells; experiment: as above
Procedure: as §1

Row | Binder | Kd [1] | koff [1] | kon [1] | EC50 [2] | EC50 of antibody, neutralization of M-CSF production induced by 12.5 nM PTHrP (1-36) [3] | fold shift of the PTHrP (1-36) dose response, M-CSF secretion by Saos-2 cells, 40 µg/mL antibody [3] | EC50 [4] | EC50 [5] | fold shift of the PTH (1-34) dose response, M-CSF secretion by Saos-2 cells, 40 µg/mL antibody [3]
1 | B1 | 0.22 nM | 7.6e-05 s⁻¹ | 340000 M⁻¹ s⁻¹ | 35.3 nM | 4 nM | > 200 fold | – | – | –
2 | B2 | 0.31 nM | 0.0006 s⁻¹ | 1.9e+06 M⁻¹ s⁻¹ | – | – | – | 14.5 nM | 1.11 nM | –
3 | B3 | 0.22 nM | 0.00065 s⁻¹ | 2.9e+06 M⁻¹ s⁻¹ | – | – | – | 18.7 nM | 0.479 nM | –
4 | B4 | 0.099 nM | 0.00036 s⁻¹ | 3.6e+06 M⁻¹ s⁻¹ | – | – | – | 1.51 nM | 0.304 nM | ~7 fold
